Laboratory results reported in patent publication US7807384B2, “Low density lipoprotein binding proteins and their use in diagnosing and treating atherosclerosis” (Boston Heart Foundation, Inc., priority 1996, dated 2010).

Assays:
LDL [1] = biological target: T1, LDL (Homo sapiens, UniProt P04114); experiment: Affinity coelectrophoresis (ACE) assay of LBP binding to LDL; conditions: LDL 540 to 14 nM cast in gel
T1 construct: LDL was prepared from the plasma of normolipemic donors; from tissue; host or cells: blood plasma of normolipemic donors, density ultracentrifugation
T1 sequence (P04114 28-4563): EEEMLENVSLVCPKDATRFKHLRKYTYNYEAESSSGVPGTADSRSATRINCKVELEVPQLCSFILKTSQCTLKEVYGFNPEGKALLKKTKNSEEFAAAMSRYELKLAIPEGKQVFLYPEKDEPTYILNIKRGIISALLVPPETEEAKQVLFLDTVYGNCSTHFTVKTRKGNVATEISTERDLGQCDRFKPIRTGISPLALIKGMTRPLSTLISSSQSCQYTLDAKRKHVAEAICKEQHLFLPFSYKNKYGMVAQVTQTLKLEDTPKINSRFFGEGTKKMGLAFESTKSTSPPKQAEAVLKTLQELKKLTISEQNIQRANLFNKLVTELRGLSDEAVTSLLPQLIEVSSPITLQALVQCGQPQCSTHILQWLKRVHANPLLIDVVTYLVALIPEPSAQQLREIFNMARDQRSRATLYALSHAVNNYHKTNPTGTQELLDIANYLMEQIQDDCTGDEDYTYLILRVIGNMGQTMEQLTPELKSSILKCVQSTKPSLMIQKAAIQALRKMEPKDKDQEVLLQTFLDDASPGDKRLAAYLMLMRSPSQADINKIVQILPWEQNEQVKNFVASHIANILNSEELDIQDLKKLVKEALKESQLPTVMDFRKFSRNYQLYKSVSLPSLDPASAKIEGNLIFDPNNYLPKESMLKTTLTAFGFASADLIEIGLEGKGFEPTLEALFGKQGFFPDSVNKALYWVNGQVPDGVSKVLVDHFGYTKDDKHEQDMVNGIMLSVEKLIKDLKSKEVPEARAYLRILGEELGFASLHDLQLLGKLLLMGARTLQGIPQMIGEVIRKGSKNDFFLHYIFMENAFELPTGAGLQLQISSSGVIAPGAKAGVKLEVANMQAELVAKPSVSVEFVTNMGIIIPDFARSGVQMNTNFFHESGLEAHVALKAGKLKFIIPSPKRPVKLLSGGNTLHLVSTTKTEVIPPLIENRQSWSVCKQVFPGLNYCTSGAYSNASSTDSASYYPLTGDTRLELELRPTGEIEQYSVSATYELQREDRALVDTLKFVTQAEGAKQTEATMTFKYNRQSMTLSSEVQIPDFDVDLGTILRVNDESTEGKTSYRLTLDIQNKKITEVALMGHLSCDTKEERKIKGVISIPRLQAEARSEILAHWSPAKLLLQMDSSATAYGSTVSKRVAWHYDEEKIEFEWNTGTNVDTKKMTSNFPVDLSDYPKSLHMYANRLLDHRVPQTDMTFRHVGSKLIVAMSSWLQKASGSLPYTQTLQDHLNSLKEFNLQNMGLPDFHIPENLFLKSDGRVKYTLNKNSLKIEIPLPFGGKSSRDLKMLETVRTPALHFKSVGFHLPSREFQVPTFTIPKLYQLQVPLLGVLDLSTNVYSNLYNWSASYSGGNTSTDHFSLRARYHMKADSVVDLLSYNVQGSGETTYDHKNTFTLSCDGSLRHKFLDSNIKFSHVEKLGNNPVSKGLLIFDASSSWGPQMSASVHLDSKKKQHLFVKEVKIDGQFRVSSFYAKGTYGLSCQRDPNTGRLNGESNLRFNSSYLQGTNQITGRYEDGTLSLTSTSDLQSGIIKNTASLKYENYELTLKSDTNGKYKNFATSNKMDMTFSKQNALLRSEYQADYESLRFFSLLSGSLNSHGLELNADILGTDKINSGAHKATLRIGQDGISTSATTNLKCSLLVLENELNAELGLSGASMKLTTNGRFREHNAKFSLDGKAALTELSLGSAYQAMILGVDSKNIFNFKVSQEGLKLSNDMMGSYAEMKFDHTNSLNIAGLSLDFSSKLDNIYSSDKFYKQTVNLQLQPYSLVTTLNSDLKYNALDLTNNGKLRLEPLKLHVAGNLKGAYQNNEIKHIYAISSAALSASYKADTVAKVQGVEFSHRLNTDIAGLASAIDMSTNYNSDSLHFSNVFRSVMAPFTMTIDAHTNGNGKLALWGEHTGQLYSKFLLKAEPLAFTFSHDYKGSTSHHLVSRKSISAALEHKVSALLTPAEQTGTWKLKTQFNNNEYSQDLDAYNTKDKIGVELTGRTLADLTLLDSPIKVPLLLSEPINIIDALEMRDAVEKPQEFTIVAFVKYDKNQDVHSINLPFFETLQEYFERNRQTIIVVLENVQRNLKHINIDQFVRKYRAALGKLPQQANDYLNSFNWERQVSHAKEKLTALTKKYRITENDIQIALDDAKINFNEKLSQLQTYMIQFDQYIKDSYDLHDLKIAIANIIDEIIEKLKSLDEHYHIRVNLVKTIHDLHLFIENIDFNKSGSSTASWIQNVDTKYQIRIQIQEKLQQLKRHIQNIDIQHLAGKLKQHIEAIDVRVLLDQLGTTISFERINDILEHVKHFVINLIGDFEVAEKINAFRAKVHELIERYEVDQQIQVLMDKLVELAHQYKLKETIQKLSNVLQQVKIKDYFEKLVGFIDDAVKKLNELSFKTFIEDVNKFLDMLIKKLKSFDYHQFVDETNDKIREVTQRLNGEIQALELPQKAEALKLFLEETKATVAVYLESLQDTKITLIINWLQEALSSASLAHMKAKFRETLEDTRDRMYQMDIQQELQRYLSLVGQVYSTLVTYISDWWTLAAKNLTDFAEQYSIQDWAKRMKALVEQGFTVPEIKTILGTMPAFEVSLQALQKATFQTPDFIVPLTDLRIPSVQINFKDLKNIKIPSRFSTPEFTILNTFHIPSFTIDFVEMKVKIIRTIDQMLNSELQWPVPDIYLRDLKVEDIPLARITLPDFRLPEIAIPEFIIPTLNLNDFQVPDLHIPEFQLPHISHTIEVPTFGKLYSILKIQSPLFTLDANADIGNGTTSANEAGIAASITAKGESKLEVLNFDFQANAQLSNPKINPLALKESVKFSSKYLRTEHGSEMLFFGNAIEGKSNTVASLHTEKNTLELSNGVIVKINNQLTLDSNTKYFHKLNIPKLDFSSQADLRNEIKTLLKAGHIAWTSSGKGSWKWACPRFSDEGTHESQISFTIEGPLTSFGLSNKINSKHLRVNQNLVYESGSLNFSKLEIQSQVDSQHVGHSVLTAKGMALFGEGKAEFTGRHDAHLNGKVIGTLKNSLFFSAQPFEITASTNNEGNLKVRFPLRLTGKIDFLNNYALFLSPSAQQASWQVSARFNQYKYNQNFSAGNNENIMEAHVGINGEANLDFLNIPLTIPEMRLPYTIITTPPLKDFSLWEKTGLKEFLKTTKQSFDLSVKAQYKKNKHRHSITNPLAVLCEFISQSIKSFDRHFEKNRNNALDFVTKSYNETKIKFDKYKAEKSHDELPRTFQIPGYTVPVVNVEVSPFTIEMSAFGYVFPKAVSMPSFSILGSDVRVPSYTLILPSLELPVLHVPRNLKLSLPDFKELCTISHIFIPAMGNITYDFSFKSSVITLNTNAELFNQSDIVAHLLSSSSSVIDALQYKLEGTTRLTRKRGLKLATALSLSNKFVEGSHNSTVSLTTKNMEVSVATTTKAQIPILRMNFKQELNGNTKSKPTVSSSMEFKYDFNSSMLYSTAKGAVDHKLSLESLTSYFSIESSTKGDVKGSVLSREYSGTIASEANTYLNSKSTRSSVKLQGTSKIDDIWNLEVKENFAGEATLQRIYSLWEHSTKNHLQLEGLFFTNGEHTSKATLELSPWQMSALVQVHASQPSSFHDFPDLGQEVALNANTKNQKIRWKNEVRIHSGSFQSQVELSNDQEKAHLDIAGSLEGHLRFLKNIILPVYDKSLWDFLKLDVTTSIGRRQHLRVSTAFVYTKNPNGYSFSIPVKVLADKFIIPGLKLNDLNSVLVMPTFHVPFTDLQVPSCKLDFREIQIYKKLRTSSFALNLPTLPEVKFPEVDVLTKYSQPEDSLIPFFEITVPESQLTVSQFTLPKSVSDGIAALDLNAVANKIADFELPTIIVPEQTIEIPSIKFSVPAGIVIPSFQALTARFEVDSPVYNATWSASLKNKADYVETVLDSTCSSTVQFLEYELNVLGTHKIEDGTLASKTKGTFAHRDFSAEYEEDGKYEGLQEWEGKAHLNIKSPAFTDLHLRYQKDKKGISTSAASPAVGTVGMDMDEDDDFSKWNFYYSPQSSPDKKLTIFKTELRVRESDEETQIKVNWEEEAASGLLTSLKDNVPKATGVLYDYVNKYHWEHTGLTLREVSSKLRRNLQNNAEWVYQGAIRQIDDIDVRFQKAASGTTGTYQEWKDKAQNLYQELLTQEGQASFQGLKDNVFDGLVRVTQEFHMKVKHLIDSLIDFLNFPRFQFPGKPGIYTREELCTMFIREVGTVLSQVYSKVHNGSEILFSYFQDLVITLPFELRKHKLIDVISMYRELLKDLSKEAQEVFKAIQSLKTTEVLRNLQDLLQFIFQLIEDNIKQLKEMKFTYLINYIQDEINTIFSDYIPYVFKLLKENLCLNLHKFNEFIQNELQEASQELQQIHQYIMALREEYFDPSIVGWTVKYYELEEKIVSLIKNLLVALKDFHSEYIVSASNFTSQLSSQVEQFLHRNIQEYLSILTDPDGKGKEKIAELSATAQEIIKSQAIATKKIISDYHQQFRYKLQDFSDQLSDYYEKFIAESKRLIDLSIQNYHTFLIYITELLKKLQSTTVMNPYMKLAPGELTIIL
Procedure: (§1) Analysis of the affinity and specificity of recombinant rabbit LBP-1, LBP-2 or LBP-3 binding to LDL was carried out using the principle of affinity electrophoresis (Lee and Lander, Proc. Natl. Acad. Sci. USA 88:2768-2772 (1991)). Melted agarose (1%; 65° C.) was prepared in 50 mM sodium MOPS, pH 7.0; 125 mM sodium acetate, 0.5% CHAPS. A teflon comb consisting of nine parallel bars (45×4×4 mm/3 mm spacing between bars) was placed onto GelBond film (FMC Bioproducts, Rockland, Me.) fitted to a plexiglass casting tray with the long axis of the bars parallel to the long axis of the casting tray. A teflon strip (66×1×1 mm) was placed on edge with the long axis parallel to the short axis of the casting tray, at a distance of 4 mm from the edge of the teflon comb. Melted agarose (>65° C.) was then poured to achieve a height of approximately 4 mm. […] LDL or HDL samples were prepared in gel buffer (50 mM sodium MOPS, pH 7.0, 125 mM sodium acetate) at twice the desired concentration. Samples were then mixed with an equal volume of melted agarose (in 50 mM MOPS, pH 7.0; 125 mM sodium acetate; 50° C.), pipetted into the appropriate rectangular wells and allowed to gel. The binding affinity and specificity of LBP-1 and LBP-3 was tested using several concentrations of LDL (540 to 14 nM) and HDL (2840177 nM). A constant amount (0.003 nM-0.016 nM) of ^125I-labeled LBP-1, LBP-2 or LBP-3 (suspended in 50 mM sodium MOPS, pH 7.0; 125 mM sodium acetate; 0.5% bromophenol blue; 6% (wt/vol) sucrose) was loaded into the slot. Gels were electrophoresed at 70 v/2 hr/20° C. At the end of the run, the gels were air dried and retardation profiles were visualized by exposure of X-ray films to the gels overnight at −70° C., with intensifying screens.
Rabbit and human LBP-2 contain a long stretch of acidic amino acids at the amino terminal (rabbit LBP-2 amino acid residues 338 through 365 and human LBP-2 amino acid residues 329 through 354). […]

HDL = experiment: Affinity coelectrophoresis (ACE) assay of LBP binding to HDL; design: species or system human; conditions: HDL cast in gel
Procedure: as §1, with “A constant amount (0.003 nM-0.016 nM) of ^125I-labeled LBP-1, LBP-2 or LBP-3 (suspended in 50 mM sodium MOPS, pH 7.0; 125 mM sodium acetate; 0.5% bromophenol blue; 6% (wt/vol) sucrose) was loaded into the slot. Gels were electrophoresed at 70 v/2 hr/20° C. At the end of the run, the gels were air dried and retardation profiles were visualized by exposure of X-ray films to the gels overnight at −70° C., with intensifying screens.” left out

LDL [2] = biological target: T1, LDL; experiment: ACE competition: cold LBP versus radiolabeled LBP binding to LDL; conditions: fixed cold LDL and radiolabeled LBP, increasing cold recombinant LBP
Procedure: Competition studies were carried out using fixed concentrations of cold LDL and radiolabeled LBP-1 and increasing amounts of cold recombinant LBP-1 (6-31 μM). The ACE assay samples and gel were prepared as described herein.
Competition studies using fixed concentrations of cold LDL and clone 26 derived radiolabeled LBP-2 and increasing concentrations of cold recombinant LBP-2/clone 26 and LBP-a/clone 45 were carried out.

[3] = Body weight and serum lipids of LBP-immunized apo E knockout mice; type: in vivo, mouse; conditions: P>0.05
Procedure: (§2) Four week old apo E knockout mice (Jackson Laboratories, Bar Harbor, Me.) were ear tagged, randomly assigned to different cages and weighed. Body weights were determined weekly. Animals were allowed to habituate for 1 week. Normal rodent chow was provided ad libitum and animals were maintained in a 12:12 light:dark cycle. The following four groups of mice were treated with either recombinant LBP proteins (40 μg of recombinant protein/mouse) plus RIBI adjuvant or RIBI adjuvant alone (control group).
Blood samples were analyzed for total cholesterol, HDL cholesterol, and triglyceride concentration with a commercially available total cholesterol and triglycerides assay kits (Sigma; St. Louis Mo.) using an ELISA format. HDL concentration was determined after Apo B containing lipoproteins were precipitated using heparin/MnCl2.
Data were analyzed using T-tests and Wilcoxons.

apo E knockout mice [4] = experiment: Aortic lesion area (Sudan IV staining) in LBP-immunized apo E knockout mice; type: in vivo, mouse; conditions: for Effect of immunization on lesions / lesion area: apo E knockout mice; for Lesion Area % Coverage: apo E mice, 26 weeks of age, control 9.40
Procedure: (§3) Separate immunization experiments were performed with each of LBP-1, LBP-2, and LBP-J. Immunity was induced by injecting apo E knockout mice with the LBP protein (LBP-1, LBP-2, or LBP-3) together with an RIBI adjuvant (RIBI ImmunoChem Research, Inc., Hamilton, Mont.). Apo E knockout mice (Jackson Laboratories, Bar Harbor, Me.) are hyperlipidemic and thus a model for human atherosclerosis. Apo E knockout mice have high levels of plasma cholesterol and develop naturally-occurring atherosclerotic-like lesions.
as §2
(§4) Apo E knockout mice were sacrificed at 26 weeks of age. The mice were anesthetized with methoxyfluorane and exanguinated via cardiac puncture. A midline thoracotomy was performed, a cannula inserted into the right ventricle and perfusate allowed unrestricted flow via an incision into the right atrium. The mice were perfused with saline, followed by 10% phosphate buffered formalin until fasciculations stopped. At this time, the aorta was exposed and adventitial fat removed in situ. The aorta was then removed from the heart down to the iliac bifurcation and placed in 10% phosphate buffered formalin overnight.
The aorta was stained as follows: after a brief 70% ethanol rinse, it was immersed in a filtered solution of 0.5% (weight/volume) Sudan IV in 35% ethanol/50% acetone with continuous shaking for 10 minutes at room temperature. Unbound dye was removed by incubating the aorta in an 80% ethanol solution with shaking until the background color was clear. The vessel was then rinsed in distilled water, placed in physiological saline and opened longitudinally from the aortic arch down to the iliac bifurcation. The vessel was pinned out and photographed. Photographs were then digitized using an Astra 1200S scanner (UMAX Technologies Inc., Freemont, Calif.) and a commercially available graphics program (Canvas; Deneba Software, Miami Fla.). Total and lesion areas were determined using the signal processing toolbox of MATLAB (The Mathworks Inc., Natick, Mass.). Percent involvement was calculated by dividing lesion area by total area.

apo E knockout mice [5] = experiment: Aortic cholesterol content (cholesterol extraction method) in LBP-immunized apo E knockout mice; type: in vivo, mouse; conditions: for Arterial Wall Cholesterol: apo E mice
Procedure: as §3, §2, §4
A second analysis was done to measure aortic atherosclerosis by a cholesterol extraction method whereby cholesterol is determined as a unit weight of artery. This method may be more accurate in measuring lesion size than attempting to measure the thickness of many sections. Specifically, the weight of an artery was measured, then the cholesterol was extracted. Aortic cholesterol content was then measured by gas-liquid chromatography. The amount of cholesterol per unit weight of artery was then determined.

[6] = test system: LDL receptor negative knockout mice; experiment: Lesions in LBP-immunized LDL receptor negative knockout mice; type: in vivo, mouse; conditions: P>0.05
[7] = test system: ballooned deendothelialized rabbit aorta; experiment: Radiolabeled LDL accumulation in ballooned deendothelialized abdominal aorta after active immunization; type: in vivo; conditions: immunized with RIBI adjuvant; corrected for dosage and percent reendothelialization; 24 hr after 125I-LDL
Procedure: Immunity was induced in male New Zealand White rabbits (Hazelton Research Products, Denver, Pa.) as follows: A mixture of purified human recombinant LBP-2 or BHF-1 peptide (1 ml; 1 mg) and RIBI adjuvant (RIBI ImmunoChem Research, Inc., Hamilton, Mont.) was injected subcutaneously at 2-5 sites along the dorsal thoracic and abdominal regions of the rabbits. Blood was collected by venipuncture on days 1 (preimmune bleeding), 35, 63, and 91. Booster injections were administered on days 28 (500 μg; SC), 56 (250 μg; SC), and 84 (125 μg; SC).
On day 93, the abdominal aorta of immunized and control rabbits was deendothelialized using a Fogarty number 4 embolectomy catheter (Chang et al., Arteriosclerosis and Thrombosis 12:1088-1098 (1992)). Four weeks after ballooning, rabbits received a bolus injection of ^125I-labeled LDL (1 ml; i.v.). […] Blood samples were centrifuged for 30 min at 2000 rpm ([…]) and total activity present in the serum was determined using a Gamma counter. Total TCA precipitable counts were determined by addition of TCA to the serum to a final concentration of 10% followed by incubation for 10 min at 4° C. Serum samples were then centrifuged (2000 rpm; 30 min; […]) and total activity present in the supernate was determined. TCA precipitable counts were calculated by subtraction: total soluble counts minus counts present in the supernate after TCA precipitation. […]

B1: LBP-2: rabbit recombinant LBP-2 clone 26 (6-His tag), contains the acidic region (protein)
chain: PPPPQQPQPPPEGGAARAGGPARPVSLREVVRYLGGSSGAGGRLTRGRVQGLLEEEAAARGRLERTRLGALALPRGDRPGRAPPAASARAARNKRAGEERVLEKEEEEEEEEDDEDDDDDVVSEGSEVPESDRPAGAQHHQLNGGERGPQTAKERAKEWSLCGPHPGQEEGRGPAAGSGTRQVFSMAALSKEGGSASSTTGPDSPSPVPLPPGKPALPGADGTPFGCPAGRKEKPADPVEWTVMDVVEYFTEAGFPEQATAFQEQEIDGKSLLLMQRTDVLTGLSIRLGPALKIYEHHIKVLQQGHFEDDDPEGFLG
modifications: left off: small tags and cut ends
notes: rabbit recombinant LBP-2 clone 26 (6-His tag), contains the acidic region
LDL [1]
  Retardation of radiolabeled LBP migration through the gel by LDL: concentration-dependent, saturable manner
LDL [1]; listed as clone 26
  Retardation of radiolabeled LBP migration through the gel by LDL: concentration-dependent, saturable, manner
HDL
  Retardation of radiolabeled LBP migration by HDL: did not retard
LDL [2]
  Inhibition by cold LBP of radiolabeled LBP binding to LDL: inhibited binding
[3]
  Effect of immunization on body weight: did not have a significant effect
Apo E knockout mice [4]
  Effect of immunization on lesions / lesion area: significant effect
  Lesion Area % Coverage: 6.01%
Apo E knockout mice [5]; apo E knockout mice, once outliers were deleted
  Effect of immunization on arterial wall cholesterol content: significant effect
Apo E knockout mice [5]; 26 weeks of age, control 6.33
  Arterial Wall Cholesterol: 3.28 ug cholesterol/mg aorta
Apo E knockout mice [5]; outliers deleted
  Arterial Wall Cholesterol: 1.83 ug cholesterol/mg aorta

B2: LBP-3: rabbit recombinant LDL binding protein LBP-3 (6-His tag), SEQ ID NO: 5 (protein, listed as Oryctolagus cuniculus)
chain: MKNQDKKNGAAKQPNPKSSPGQPEAGAEGAQGRPGRPAPAREAEGASSQAPGRPEGAQAKTAQPGALCDVSEELSRQLEDILSTYCVDNNQGAPGEDGVQGEPPEPEDAEKSRAYVARNGEPEPGTPVVNGEKETSKAEPGTEEIRTSDEVGDRDHRRPQEKKKAKGLGKEITLLMQTLNTLSTPEEKLAALCKKYAELLEEHRNSQKQMKLLQKKQSQLVQEKDHLRGEHSKAILARSKLESLCRELQRHNRSLKEEGVQRAREEEEKRKEVTSHFQMTLNDIQLQMEQHNERNSKLRQENMELAERLKKLIEQYELREEHIDKVFKHKDLQQQLVDAKLQQAQEMLKEAEERHQREKDFLLKEAVESQRMCELMKQQETHLKQQLALYTEKFEEFQNTLSKSSEVFTTFKQEMEKMTKKIKKLEKETTMYRSRWESSNKALLEMAEEKTLRDKELEGLQVKIQRLEKLCRALQTERNDLNKRVQDLSAGGQGPVSDSGPERRPEPATTSKEQGVEGPGAQVPNSPRATDASCCAGAPSTEASGQTGPQEPTTATA
modifications: 6-His tag
LDL [1]
  Retardation of radiolabeled LBP migration through the gel by LDL: concentration-dependent, saturable manner
HDL
  Retardation of radiolabeled LBP migration by HDL: did not retard
LDL [2]
  Inhibition by cold LBP of radiolabeled LBP binding to LDL: inhibited binding
[3]
  Effect of immunization on body weight: did not have a significant effect
Apo E knockout mice [4]
  Effect of immunization on lesions / lesion area: did not have a significant effect
  Lesion Area % Coverage: 7.14%
Apo E knockout mice [5]; 26 weeks of age, control 6.33
  Arterial Wall Cholesterol: 4.48 ug cholesterol/mg aorta
[6]
  Effect of immunization on lesions: did not have a significant effect

B3: recombinant human LBP-2: purified human recombinant LBP-2 used as immunogen with RIBI adjuvant (protein)
chain: EERVLEKEEEEDDDEDEDEEDDVSEGSEVPESDRPAGAQHHQLNGERGPQSAKERVKEWTPCGPHQGQDEGRGPAPGSGTRQVFSMAAMNKEGGTASVATGPDSPSPVPLPPGKPALPGADGTPFGCPPGRKEKPSDPVEWTVMDVVEYFTEAGFPEQATAFQEQEIDGKSLLLMQRTDVLTGLSIRLGPALKIYEHHIKVLQQGHFEDDDPDGFLG
[7]
  Accumulation of radiolabeled LDL in ballooned abdominal aorta versus nonimmune-ballooned rabbits: lower accumulation
